Data: paper PMC9712689 (Communications Biology, 2022)

B1: PA4063 (natural protein)
chain: HDDHDHDHAHGSLGKHEHGVAQLNVALDGKTLELELDSPAMNLVGFEHAASTDADKAAVAKARAQLEKPLELFALPVTAGCSVASQELRSPLFGDKAPAHAHKEKAGHEHEHEHEHEHGHADIHAHYQLSCEKPELLKLLTLAEFFKRFPATQKIQVQLIGPDGQKGADLAPASAELKL
notes: source: E. coli, purified (Ni-NTA or Strep-Tactin)
B2: PA2854 (natural protein)
chain: LELQLPPPGEDVVGQVQVIKAKYEDTFADLGEQYNLGYSEMVAANPGVDPWLPGVGTEVIIPTRFVLPPGPREGVVINLAEYRLYYYPKGQNVVHTYPLGIGREGWGSPIANTRITAKTKDPAWYPPASIRAEHAADGDPLPTVVPPGPDNPLGPYKLTLGVPGYLIHGSNKKFGIGTRTSHGCFRMYNADVTHLFSMISVGTSVRIINEPYKFGVSNGKVYLEAHTPLNDHGDPSVVDKHTAVINTLLKRDDLAKRIQLNWDVVREVVASEDGVPVEIAQESAPAMTATVDSDPTQLTP
notes: as for B1
B3: RlpA-Δ32·MltF2 complex (MST) (complex)
chain 1: PQQPARQAGISGPGDYSRPHRDGAPWWDVDVSRIPDAVPMPHNGSVKANPYTVLGKTYYPMNDARAYRMVGTASWYGTKFHGQATANGETYDLYGMTAAHKTLPLPSYVRVTNLDNGKSVIVRVNDRGPFYSDRVIDLSFAAAKKLGYAETGTARVKVEGIDPVQWWAQRGRPAPMVLAQPKQAVAQAAPAAAQTQAVAMAQPIETYTPPPAQHAAAVLPVQIDSKKNASLPADGLYLQVGAFANPDAAELLKAKLSGVTAAPVFISSVVRNQQILHRVRLGPIGSADEVSRTQDSIRVANLGQPTLVRPD
chain 2: RITGQPDNWHREQPETRDLASIRRAGVLKVLVNQSRNSSGEVKGEPIGVEYRRLRAFEQYLNSRSPSARNLTLKLIPKPKDQLLAALQRGEGDLVAPGELLPAHDGLQVSPSAPVRADVPLVLVARKGNRRYTRLEQLSGRTIPLPAGSAAEGAIELVNQRLAQRRMAPIRIEKLDASLAVEDVMEMVQAGILGFTVVEQPIAERWAKVLPKLRVDRHLVLDNRADMAWYVRRDASTLRATIDRFLADYRAPADQDVAFQRVYRRAYKVRNPLGAADRKRLEAVRPLLQRYARQSSMDWLALAAVAYKESHLNPKARGSGGASGLMQITPAAARSVGVGNVHDKDSNVLAASRYLTKIRKQFFSSKHLDERERLAFTLAAYNMGPERVQNLRTQARRRGLDPNRWFFQVERVAAEEIGMGVVSYVSSVNKYYLAYERERVRLEPGVRAKTATAQK
modifications: amine reactive RED-NHS dye
B4: PilO (natural protein)
chain: YNFHLSDMQAQLEQQAAEEETLKQQFSTKAFQAANLEAYKAQMKEMEESFGALLRQLPSDTEVPGLLEDITRTGLGSGLEFEEIKLLPEVAQQFYIELPIQISVVGGYHDLATFVSGVSSLPRIVTLHDFEIKPVAPGSTSKLRMSILAKTYRYNDKGLKK
notes: as for B1
B5: RlpA-Δ81 (domain or fragment)
chain: YTVLGKTYYPMNDARAYRMVGTASWYGTKFHGQATANGETYDLYGMTAAHKTLPLPSYVRVTNLDNGKSVIVRVNDRGPFYSDRVIDLSFAAAKKLGYAETGTARVKVEGIDPVQWWAQRGRPAPMVLAQPKQAVAQAAPAAAQTQAVAMAQPIETYTPPPAQHAAAVLPVQIDSKKNASLPADGLYLQVGAFANPDAAELLKAKLSGVTAAPVFISSVVRNQQILHRVRLGPIGSADEVSRTQDSIRVANLGQPTLVRPD
notes: source: E. coli BL21-star (DE3), purified (Ni-NTA)

Columns and labels:
Details in all cases: both partners purified
RlpA-Δ81 = biological target: B5; test: SPR
[1] = biological target: T1, RlpA-Δ32, fluorescently labeled (P. aeruginosa PAO1, UniProt Q9X6V6 32-342, amine reactive RED-NHS dye); test: MST
T1 construct: source: E. coli BL21-star (DE3), purified (Ni-NTA), labelled with RED-NHS dye
T1 sequence: B3 chain 1

[2] = biological target: B3; test: MST
RlpA-Δ32 = biological target: T2, RlpA-Δ32 (P. aeruginosa PAO1, UniProt Q9X6V6 32-342); test: SPR
T2 construct: source: E. coli BL21-star (DE3), purified (Ni-NTA)
T2 sequence: B3 chain 1

PBP1a [3] = biological target: T3, PBP1a (P. aeruginosa PAO1, UniProt Q07806 27-822); test: MST
PBP1a [4] = biological target: T3, PBP1a; test: SPR
TypA = biological target: T4, TypA (P. aeruginosa PAO1, UniProt Q9HU67 1-605); test: SPR
T4 sequence (looked up): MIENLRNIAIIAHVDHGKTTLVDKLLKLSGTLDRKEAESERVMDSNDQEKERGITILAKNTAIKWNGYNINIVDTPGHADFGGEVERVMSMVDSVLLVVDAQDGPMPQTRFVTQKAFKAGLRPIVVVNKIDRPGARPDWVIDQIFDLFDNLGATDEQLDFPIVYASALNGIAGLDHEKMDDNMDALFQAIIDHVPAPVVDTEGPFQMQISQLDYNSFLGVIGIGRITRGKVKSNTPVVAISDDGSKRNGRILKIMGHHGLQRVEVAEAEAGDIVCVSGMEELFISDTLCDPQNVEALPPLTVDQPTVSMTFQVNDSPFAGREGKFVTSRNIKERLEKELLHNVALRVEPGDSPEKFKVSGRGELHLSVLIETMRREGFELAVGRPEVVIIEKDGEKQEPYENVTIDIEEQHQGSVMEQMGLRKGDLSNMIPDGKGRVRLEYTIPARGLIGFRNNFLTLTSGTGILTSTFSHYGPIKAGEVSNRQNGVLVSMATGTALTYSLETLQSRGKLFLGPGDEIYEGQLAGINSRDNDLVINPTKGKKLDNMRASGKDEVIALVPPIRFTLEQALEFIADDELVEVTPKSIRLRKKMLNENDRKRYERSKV

MltD = biological target: T5, MltD (P. aeruginosa PAO1, UniProt Q9I2T2 1-534); test: SPR
T5 sequence (looked up): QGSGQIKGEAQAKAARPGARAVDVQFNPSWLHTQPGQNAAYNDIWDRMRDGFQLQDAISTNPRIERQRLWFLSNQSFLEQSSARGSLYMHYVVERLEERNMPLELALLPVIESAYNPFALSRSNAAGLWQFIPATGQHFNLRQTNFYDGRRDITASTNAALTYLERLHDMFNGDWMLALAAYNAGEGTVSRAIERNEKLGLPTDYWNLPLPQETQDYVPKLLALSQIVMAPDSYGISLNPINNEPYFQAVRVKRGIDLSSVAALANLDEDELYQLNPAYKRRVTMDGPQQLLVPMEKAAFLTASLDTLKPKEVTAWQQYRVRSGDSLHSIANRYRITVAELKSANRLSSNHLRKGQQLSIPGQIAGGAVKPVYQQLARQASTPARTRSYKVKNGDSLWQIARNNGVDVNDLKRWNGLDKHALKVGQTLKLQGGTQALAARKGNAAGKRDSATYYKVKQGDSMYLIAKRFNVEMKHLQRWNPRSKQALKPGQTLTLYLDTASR

PA2854 = biological target: B2; test: SPR
MltF2 = biological target: T6, MltF2 (P. aeruginosa PAO1, UniProt Q9HZY1 1-476); test: SPR
T6 sequence (looked up): B3 chain 2

T3 sequence (Q07806 27-822): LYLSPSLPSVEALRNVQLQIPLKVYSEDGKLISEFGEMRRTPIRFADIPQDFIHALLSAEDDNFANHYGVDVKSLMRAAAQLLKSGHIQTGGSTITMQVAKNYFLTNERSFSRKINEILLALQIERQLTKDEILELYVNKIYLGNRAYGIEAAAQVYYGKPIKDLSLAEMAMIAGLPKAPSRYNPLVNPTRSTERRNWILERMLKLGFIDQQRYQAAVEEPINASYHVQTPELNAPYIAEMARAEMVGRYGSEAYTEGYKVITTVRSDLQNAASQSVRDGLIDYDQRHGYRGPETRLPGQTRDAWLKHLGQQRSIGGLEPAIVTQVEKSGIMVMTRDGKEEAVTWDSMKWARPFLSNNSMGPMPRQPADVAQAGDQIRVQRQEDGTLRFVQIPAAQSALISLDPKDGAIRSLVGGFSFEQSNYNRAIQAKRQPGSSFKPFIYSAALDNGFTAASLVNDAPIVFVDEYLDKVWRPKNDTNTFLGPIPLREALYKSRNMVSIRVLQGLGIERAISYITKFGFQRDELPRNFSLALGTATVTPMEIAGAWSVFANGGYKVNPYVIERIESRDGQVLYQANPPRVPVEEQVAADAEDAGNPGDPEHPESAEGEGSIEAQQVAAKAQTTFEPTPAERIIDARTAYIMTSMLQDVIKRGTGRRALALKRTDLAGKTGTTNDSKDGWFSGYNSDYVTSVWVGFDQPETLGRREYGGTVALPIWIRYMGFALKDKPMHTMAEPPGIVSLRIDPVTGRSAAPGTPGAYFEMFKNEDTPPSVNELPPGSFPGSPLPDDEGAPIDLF

Binder | Kd (RlpA-Δ81) [nM] | koff (RlpA-Δ81) [s⁻¹] | kon (RlpA-Δ81) [M⁻¹ s⁻¹] | Kd [1] [nM] | Kd [2] [nM] | Kd (RlpA-Δ32) [nM] | koff (RlpA-Δ32) [s⁻¹] | kon (RlpA-Δ32) [M⁻¹ s⁻¹] | further results
B1 | 1080 | 0.00194 | 1800 | 201 | 105 | 810 | 0.00145 | 1800 | –
B2 | – | – | – | 58 | 55 | 65 | 0.00032 | 4900 | –
B3 | – | – | – | – | – | – | – | – | Kd (PBP1a [3]): 45 nM
B4 | 1010 | 0.00076 | 750 | 350 | 208 | 3130 | 0.00275 | 880 | –
B5 | – | – | – | – | – | – | – | – | Kd (PBP1a [4]): 94 nM; koff (PBP1a [4]): 0.00177 s⁻¹; kon (PBP1a [4]): 18800 M⁻¹ s⁻¹; Kd (TypA): 74 nM; koff (TypA): 0.00047 s⁻¹; kon (TypA): 6400 M⁻¹ s⁻¹; Kd (MltD): 56 nM; koff (MltD): 0.0039 s⁻¹; kon (MltD): 69000 M⁻¹ s⁻¹; Kd (PA2854): 2270 nM; koff (PA2854): 0.00075 s⁻¹; kon (PA2854): 330 M⁻¹ s⁻¹; Kd (MltF2): 3 nM; koff (MltF2): 4e-05 s⁻¹; kon (MltF2): 14900 M⁻¹ s⁻¹
